Consider four molecules from patent US20220363757A1 (SYMPHOGEN A S, published 2022).

Assay in all cases: SPR, Fab over captured mutant LAG-3-Fc;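 also: fc fusion variants captured on anti-human IgG Fc sensor, Fab injected with association then dissociation phases, KD obtained from Langmuir one-to-one fit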
(Surface plasmon resonance follows binding to a sensor surface in real time, without labels.)

Test [1] addresses T1, human LAG-3 domain 1-2 Fc fusion, point mutation #36 P89A (human, UniProt P18627 23-266).
T1 construct: not shown: human IgG1 Fc, AA P101-K330
T1 sequence: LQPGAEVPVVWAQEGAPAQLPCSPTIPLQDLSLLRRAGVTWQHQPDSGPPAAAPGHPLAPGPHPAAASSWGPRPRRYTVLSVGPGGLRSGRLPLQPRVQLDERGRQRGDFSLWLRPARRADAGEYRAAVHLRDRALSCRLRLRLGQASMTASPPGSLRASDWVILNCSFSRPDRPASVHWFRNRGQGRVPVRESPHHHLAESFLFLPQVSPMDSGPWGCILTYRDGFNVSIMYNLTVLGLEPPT

Test [2] has as its target T2, human LAG-3 domain 1-2 Fc fusion, point mutation #34 A87S (human, UniProt P18627 23-266).
T2 construct: not shown: human IgG1 Fc, AA P101-K330
T2 sequence: T1 sequence with A65S, A67P

The target in test [3] is T3, human LAG-3 domain 1-2 Fc fusion, point mutation #19 D68A (human, UniProt P18627 23-266).
T3 construct: not shown: human IgG1 Fc, AA P101-K330
T3 sequence: T1 sequence with D46A, A67P

In test [4] the target is T4, human LAG-3 domain 1-2 Fc fusion, point mutation #79 S159A (human, UniProt P18627 23-266).
T4 construct: not shown: human IgG1 Fc, AA P101-K330
T4 sequence: T1 sequence with A67P, S137A

In test [5] the target is T5, human LAG-3 domain 1-2 Fc fusion, point mutation #46 Y99A (human, UniProt P18627 23-266).
T5 construct: not shown: human IgG1 Fc, AA P101-K330
T5 sequence: T1 sequence with A67P, Y77A

Test [6] has as its target T6, human LAG-3 domain 1-2 Fc fusion, point mutation #24 G77A (human, UniProt P18627 23-266).
T6 construct: not shown: human IgG1 Fc, AA P101-K330
T6 sequence: T1 sequence with G55A, A67P

Test [7] concerns the target T7, human LAG-3 domain 1-2 Fc fusion, point mutation #44 R97A (human, UniProt P18627 23-266).
T7 construct: not shown: human IgG1 Fc, AA P101-K330
T7 sequence: T1 sequence with A67P, R75A

The target in test [8] is T8, human LAG-3 domain 1-2 Fc fusion, point mutation #37 S90A (human, UniProt P18627 23-266).
T8 construct: not shown: human IgG1 Fc, AA P101-K330
T8 sequence: T1 sequence with A67P, S68A

Test [9] has as its target T9, human LAG-3 domain 1-2 Fc fusion, point mutation #61 R119A (human, UniProt P18627 23-266).
T9 construct: not shown: human IgG1 Fc, AA P101-K330
T9 sequence: T1 sequence with A67P, R97A

Changes are numbered by the printed parent chain.

B1: Fab fragment of antibody 15011 (Fab, V domains shown, not shown: a dimerising Fc or GST)
VH: EVQLLESGGGLVQPGGSLRLSCAASGFDFRSYAMMWVRQAPGKGLEWVGGINGEVGGSNTYYAPAVKGRATISRDNSKNTLYLQMNSLRAEDTAVYYCVKGAGACGICNDDIDAWGQGTLVTVSS
VL: SYELTQDPAVSVALGQTVRITCSGAGSYAGSYYYGWHQQKPGQAPVTVIYDNDKRPSNIPDRFSGSSSGNTASLTITGAQAEDEADYYCGSTNDNDDGGLFGSGTKVTVLG
notes: monomeric Fab made by GingisKHAN digestion of the IgG1
B1: the “KD mutant/KD wild type” value in test [1] amounted to 0.9 fold; in [2], 1 fold; in test [3] it was 0.6 fold; in test [4] it was 0.7 fold; in test [5], 0.5 fold; in test [6], 0.8 fold. Moreover, the figures for the “KD mutant/KD wild type” value in test [7], in test [8] and in test [9] were 0.7 fold, 0.9 fold and 0.6 fold, respectively.

B2: Fab fragment of antibody 15532 (Fab, V domains shown, not shown: a dimerising Fc or GST)
VH: QVQLQQWGAGLLRPSETLSLTCAVYGESFSGYYWNWIRQPPGKGLEWIGEINHSGSTNYNPSLKSRVTISVDTSKTQFSLKLSSVTAADTAVYYCARGWDLLDWNDYWNEYWGQGTLVTVSS
VL: EIVLTQSPATLSLSPGERATLSCRASQSVSSYLAWYQQKPGQAPRLLIYDASNRATGIPARFSGSGSGTDFTLTISSLEPEDFAVYYCQQRSNWPLTFGGGTKVEIKR
notes: as for B1
Consider B2, for which the “KD mutant/KD wild type” value in test [1] is 14.2 fold; in test [3] it was 3.4 fold; in test [4], 0.7 fold; in test [5], 4.1 fold; in test [6] it was 1 fold; in [7], 0.9 fold. In addition, the “KD mutant/KD wild type” value is 0.6 fold in [8] and 3.2 fold in [9]. In addition, in [2], the binding result is listed as “no binding (tested: 300 nM)”.

B3: Fab fragment of antibody 15431 (Fab, V domains shown, not shown: a dimerising Fc or GST)
VH: QVQLQQSGPGLVKPSQTLSLTCAISGDSVSSNSAAWNWIRQSPSRGLEWLGRTYYRSKWYNDYAVSVKSRITINPDTSKNQFSLQLNSVTPEDTAVYYCARDDDWNDFDYWGQGTLVTVSS
VL: B2 VL
notes: as for B1
In the case of B3, the “KD mutant/KD wild type” value in [1] was 0.8 fold; in test [2], 1 fold; in [4], 0.9 fold; in test [6], 0.7 fold; in test [7] it was 1.3 fold; in test [8], 0.9 fold. The binding result in test [3], in test [5] and in [9] was “no binding (tested: 300 nM)” each time.

B4: Fab fragment of antibody 15572 (Fab, V domains shown, not shown: a dimerising Fc or GST)
VH: QLQLQESGPGLVKPSETLSLTCTVSGDSISSSSYYWGWIRQPPGKGLEWIGSIFYSGNTYYNPSLKSRVTISVDTSKNQFSLKLSSVTAADTAVYYCAREDDFLTDYYGAFDIWGQGTMVTVSS
VL: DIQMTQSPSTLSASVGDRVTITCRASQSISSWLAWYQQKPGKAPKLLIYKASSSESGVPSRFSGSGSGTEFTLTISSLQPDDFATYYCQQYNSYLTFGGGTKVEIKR
notes: as for B1
For the molecule B4, the “KD mutant/KD wild type” value in test [1] was determined as 0.8 fold; in test [2], 0.9 fold; in [4] it was 0.3 fold; in [6], 0.7 fold; in test [7] it was 0.6 fold; in [8], 0.8 fold. Moreover, the binding result in [3], in test [5] and in [9] was “no binding (tested: 300 nM)” throughout.
